From patent publication US20030223996A1 (published 2003)

T1: Tumour Necrosis Factor-beta (human, UniProt P01374 35-205)
T1 construct: also called TNFβ; TNF-β
T1 sequence (looked up): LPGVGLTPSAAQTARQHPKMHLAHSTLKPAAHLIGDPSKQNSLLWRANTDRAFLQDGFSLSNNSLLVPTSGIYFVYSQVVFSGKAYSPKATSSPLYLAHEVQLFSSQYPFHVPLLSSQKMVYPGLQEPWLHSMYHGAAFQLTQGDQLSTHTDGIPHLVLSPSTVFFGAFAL

B1: I001C09 (scFv)
scFv: GVQLVQSGPEVKKPGASVKVSCTASGYTFTSYGVSWVRQAPGQGLEWIGWISAHNGQTKYAEKFQGRVTMTRNTSISTAYMELSSLRSEDTAVYYCARDGSYDILTGYYIDNYMDVWGKGTMVTVSSGGGGSGGGGSGGGGSSELTQDPAVSVALGQTVRITCQGDSLRSYYTNWFQQKPGQAPLLVVYAKNKRPSGIPDRFSGSSSGNTASLTITGAQAEDEADYYCHSRDSSGNHVLFGGGTKLTVLG
B2: I099D03 (scFv)
scFv: QVQLVQSGAEVKKPGASVRVSCKSSGYTFTNYGISWVRQAPGQGLEWMGWISNNNGKTYYAQKVQGRVTMTTDTSTSTDYMELRGLRSDDTAIYYCARDNGGGTIGFDYWGRGTLVTVSSGGGGSGGGGSGGGGSAQAVLTQPSSVSGAPGQRVTMSCTGSSSNIGAGYDVHWYQQLPGTAPKLLIYDNTNRPSGVPDRFSGSRSGTSASLAITGLQAEDEADYFCQSYDITLSAVFGTGTKVTVLG
B3: I016F04 (scFv)
scFv: QVQLQQSGSELKKPGASVKVSCKVSGYSLTKMSMHWVRQSPGEGLEWVGGIDPETRQPVYAQKFQGRVTITKDTSASAAYMELSSLGSEDTALYYCARATYDPLTGYSFDGFDIWGQGTLVTVSSGGGGSGGGGSGGGGSQSVLTQPASVSGSPGQSITISCTGTSSDVGGYNYVSWYQQHPGKAPKLMIYEGSKRPSGVSNRFSGSKSGNTASLTISGLQAEDEADYYCSSYTTRSTRVFGGGTKLTVLG
B4: I050A07 (scFv)
scFv: QVQLVQSGAEVKKPGASMKVSCKASAGRASAYGFAMHPIHWVRQAPGQGLEWMGWINGGTGNTKYSEKFLGRVTMTSDTSATTAYMELSSLRSEDTAVYYCARQDNDPLTGYKLGFDYWGKGTLVTVSSGGGGSGGGGSGGGGSAQSVVTQPPSVSGAPGQRVTISCTGSSTNVGAGYGVHWYQQFPETAPKLLIYGGSNRPSGVPDRFSGSQSGTSASLAITGLQAEDEADYYCQSYDTTLSGYVFGTGTKVTVLG
B5: I082H08 (scFv)
scFv: EVQLVESGGGLVQPGGSLRLSCAASGFTFSDYGMHWVRQRPGKGLEWIAFIGSDGSNKYYGDTVKGRFTISRDNAKNSLYLQMNSLRAEGTAVYYCARDWDMDVWGQGTMVTVSSGGGGSGGGGSGGGGSSHVILTQPRSVSGSPGQSVTISCTGTSSDVGGYHYVSWYQQHPGKAPRLMIYEVTKRPSGVSNRFSGSKSGNTASLTISGVQAEDEADYYCSSYTSASTVIFGGGTKLTVLG
B6: I079E02 (scFv)
scFv: QVQLVQSGAEVKKPGSSVKVSCKASGGTFSSYAISWVRQAPGQGLEWMGGIIPIFGTANYAQKFQGRVTITADKSTSTAYMELSSLRSDDTAVYYCARDSGSYYYDAFDIWGKGTMVTVSSGGGGSGGGGSGGGGSDIVMTQSPSTLSASVGDRVTITCRASQGISSWLAWYQQKPGKAPKLLIYAASSLQSGVPSRFSGSGSGTDFTLTISSLQPEDFATYYCQQANSFPLTFGGGTKVEIKR

Experiments:
[1] = molecular target: T2, Tumour Necrosis Factor-alpha (human, UniProt P01375 77-233); assay: phage ELISA
T2 construct: also called TNFα; TNF-α
Experimental: (§1) To determine the specificity of the 48 scFvs, a phage ELISA was performed against human and mouse BLyS, and a panel of related and unrelated human antigens: Fas ligand, TRAIL, TNFα, TNFβ, and PBS. The: Fas ligand, TRAIL, TNFα, and TNFβ antigens were obtained from R&D Systems, Minneapolis, Minn. Individual E. coli colonies containing phagemid were inoculated into 5 ml 2YTAG and incubated at 37° C. for 4 hours, shaking. M13KO7 helper phage (Pharmacia) was added to each tube to a MOI of 10 and incubated […] 1 hour, the first 30 minutes static and the final 30 minutes with gentle shaking. Cells were pelleted by centrifugation at 3,500 rpm for 10 minutes and the supernatant discarded. Cell pellets were resuspended in 5 ml 2TYAK and incubated at 30° C. overnight with shaking. The next day, the cells were pelleted by centrifugation at 3,500 rpm for 10 minutes. The phage-containing supernatant (5 ml) was carefully transferred to a fresh tube, 1 ml of 6MPBS was added, and the tube was incubated at room temperature for 1 hour to pre-block the phage prior to ELISA.
(§2) All antigens were coated at 1 μg/ml. ELISAs were performed essentially as described in Example 2. The only exception to this being the detection of phage antibody binding to mouse BLyS where the step involving incubation with the HRP-labelled anti-mouse polymer was omitted. Binding to mouse BLyS was detected with TMB as in Example 2.

[2] = molecular target: T3, mouse membrane-bound BLyS on P388 plasma membranes (mouse, UniProt Q9WU72 1-309); assay: competition phage ELISA on P388 membranes
T3 construct: whole, on cells; Plasma membrane preparations, not intact cells
Experimental: The ability of the 5 scFvs listed in Table 8 to also recognize murine membrane-bound BLyS was determined using a competition ELISA. This assay assesses the ability of test phage scFvs to bind to the membrane-bound form of BLyS on the murine cell line, P388, plasma membranes in the presence of different forms of competing human BLyS. Competing BLyS was either presented as the His-tagged form of BLyS, or soluble BLyS. ScFvs that recognize mouse membrane-bound BLyS would give an ELISA signal on the P388 plasma membranes that is competed out by pre-incubation with HIS-tagged BLyS but not by pre-incubation with soluble BLyS.
P388 plasma membranes (50 μl per well) were coated at 10 μg/ml in PBS onto Falcon 96-well plates overnight at 4° C. The method is otherwise essentially as described Example 16.

[3] = molecular target: T1, Tumour Necrosis Factor-beta; assay: phage ELISA
Experimental: as §1, §2

T3 sequence (Q9WU72 whole entry): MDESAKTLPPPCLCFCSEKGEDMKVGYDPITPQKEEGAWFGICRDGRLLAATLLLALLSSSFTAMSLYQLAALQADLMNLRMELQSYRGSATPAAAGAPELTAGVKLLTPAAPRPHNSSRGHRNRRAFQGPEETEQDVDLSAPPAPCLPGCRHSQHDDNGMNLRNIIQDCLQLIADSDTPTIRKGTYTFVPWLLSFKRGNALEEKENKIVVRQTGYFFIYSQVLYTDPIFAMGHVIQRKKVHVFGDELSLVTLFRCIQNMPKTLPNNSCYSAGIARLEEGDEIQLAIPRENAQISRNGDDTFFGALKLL
T2 sequence (P01375 77-233 limits assumed): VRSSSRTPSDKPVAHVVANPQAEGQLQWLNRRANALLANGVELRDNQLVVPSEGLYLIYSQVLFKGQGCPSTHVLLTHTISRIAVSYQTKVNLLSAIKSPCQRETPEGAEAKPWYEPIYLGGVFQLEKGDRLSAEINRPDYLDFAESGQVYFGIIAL

Binder	binding result [1]	binding result [2]	also measured
B1	no binding	–	–
B2	–	binds	–
B3	–	–	binding result [3]: no binding
B4	no binding	–	–
B5	–	binds	–
B6	–	binds	–
